This is an account of results in patent US12295987B2, “Method of using a GIP/GLP1 co-agonist for diabetes” (Eli Lilly and Company, priority 2018, dated 2025).

Numbered stars: 1 amine (or outer) side, 2 acyl side, 3 side chain; on linkers, the order of the positions; unused ones are H or OH. Square brackets hold non-standard residues; d marks the D form. Side chains are listed from the residue outwards. Ends that are not written are not given here. * marks the point of attachment. C20 diacid = O=C(O)CCCCCCCCCCCCCCCCCCC(=O)*; γGlu = O=C(O)[C@H](CCC(=O)[*:2])N[*:1]; AEEA = NCCOCCOCC(=O)O; Aib = CC(C)(N)C(=O)O

For this test, the target named is T1, human gastric inhibitory peptide receptor (hGIPR) (Homo sapiens, UniProt P48546).
T1 construct: expressed in transfected cells; host or cells: HEK293
T1 sequence (P48546 22-466): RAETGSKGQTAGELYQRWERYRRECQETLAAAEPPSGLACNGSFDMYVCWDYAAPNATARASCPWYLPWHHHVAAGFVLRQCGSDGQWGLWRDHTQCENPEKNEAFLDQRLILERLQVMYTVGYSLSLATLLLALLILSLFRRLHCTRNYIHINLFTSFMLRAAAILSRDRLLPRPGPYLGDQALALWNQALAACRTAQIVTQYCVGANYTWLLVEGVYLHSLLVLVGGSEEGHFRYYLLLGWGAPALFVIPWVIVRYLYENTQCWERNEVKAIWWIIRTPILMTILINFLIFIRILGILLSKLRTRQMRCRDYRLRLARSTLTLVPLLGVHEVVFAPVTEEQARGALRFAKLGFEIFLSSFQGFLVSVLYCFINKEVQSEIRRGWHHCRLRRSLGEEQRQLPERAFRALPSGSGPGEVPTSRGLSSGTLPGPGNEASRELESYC
The test can be described thus: cAMP pharmacological functional assay in presence of 0.1% casein, hGIPR. It counts as cell-based. The following applies: ratio of hGIPR to hGLP1R cAMP EC50 ratios.

“Y-Aib-EGTFTSDYSI-αMeL-LDKK((2-[2-(2-Amino-ethoxy)-ethoxy]-acetyl)2-(γGlu)-CO—(CH2)18—CO2H)AQ-Aib-AFIEYLIEGGPSSGAPPPS-NH2 (YXEGTFTSDYSIXLDKKAQXAFIEYLIEGGPSSGAPPPS; Aib, αMeL; lipidated K; C-terminal amide; (2)..(2) Xaa at position 2 is Aib; (13)..(13) Xaa at position 13 is alpha-methyl-Leu; MOD_RES (17)..(17) Lys at position 17 is chemically modified by conjugation of the epsilon-amino group of the Lys side chain with (2-[2-(2-amino-ethoxy)-ethoxy]-acetyl)2-(gamma-Glu)-CO-(CH2)18- CO2H; (20)..(20) Xaa at position 20 is Aib; MOD_RES (39)..(39) Ser at position 39 is amidated) [Peptide 20]”: the “[hGIPR/hGLP1R] EC50 Ratio” value amounted to 4.87.
“Y-Aib-EGTFTSDYSI-αMeL-LDSK((2-[2-(2-Amino-ethoxy)-ethoxy]-acetyl)2-(γGlu)-CO—(CH2)18—CO2H)AQ-Aib-AFIEYLIEGG-NH2 (YXEGTFTSDYSIXLDSKAQXAFIEYLIEGG; Aib, αMeL; K lipidated C20 diacid-γGlu-AEEA2; C-terminal amide; (2)..(2) Xaa at position 2 is Aib; (13)..(13) Xaa at position 13 is alpha-methyl-Leu; MOD_RES (17)..(17) Lys at position 17 is chemically modified by conjugation of the epsilon-amino group of the Lys side chain with (2-[2-(2-amino-ethoxy)-ethoxy]-acetyl)2-(gamma-Glu)-CO-(CH2)18- CO2H; (20)..(20) Xaa at position 20 is Aib; MOD_RES (30)..(30) Gly at position 30 is amidated) [Peptide 64]”: the “[hGIPR/hGLP1R] EC50 Ratio” value turned out to be 3.66.
Regarding “Y-Aib-EGTFTSDYSI-αMeL-LDSK((2-[2-(2-Amino-ethoxy)-ethoxy]-acetyl)2-(γGlu)-CO—(CH2)18—CO2H)AQ-Aib-AFIEYLIEGGPSSGAPPPS-NH2 (YXEGTFTSDYSIXLDSKAQXAFIEYLIEGGPSSGAPPPS; Aib, αMeL, lipidated Lys, C-terminal amide; (2)..(2) Xaa at position 2 is Aib; (13)..(13) Xaa at position 13 is alpha-methyl-Leu; MOD_RES (17)..(17) Lys at position 17 is chemically modified by conjugation of the epsilon-amino group of the Lys side chain with (2-[2-(2-amino-ethoxy)-ethoxy]-acetyl)2-(gamma-Glu)-CO-(CH2)18- CO2H; (20)..(20) Xaa at position 20 is Aib; MOD_RES (39)..(39) Ser at position 39 is amidated) [Peptide 52]”, the “[hGIPR/hGLP1R] EC50 Ratio” value is 2.72.
Regarding “Y-Aib-EGTFTSDYSI-αMeL-LDTK((2-[2-(2-Amino-ethoxy)-ethoxy]-acetyl)2-(γGlu)-CO—(CH2)18—CO2H)AQ-Aib-AFIEYLIEGG-NH2 (YXEGTFTSDYSIXLDTKAQXAFIEYLIEGG; Aib, αMeL; K lipidated C20 diacid-γGlu-AEEA2; C-terminal amide; (2)..(2) Xaa at position 2 is Aib; (13)..(13) Xaa at position 13 is alpha-methyl-Leu; MOD_RES (17)..(17) Lys at position 17 is chemically modified by conjugation of the epsilon-amino group of the Lys side chain with (2-[2-(2-amino-ethoxy)-ethoxy]-acetyl)2-(gamma-Glu)-CO-(CH2)18- CO2H; (20)..(20) Xaa at position 20 is Aib; MOD_RES (30)..(30) Gly at position 30 is amidated) [Peptide 65]”, the “[hGIPR/hGLP1R] EC50 Ratio” value is 4.46.
For “Y-Aib-EGTFTSDYSIK((2-[2-(2-Amino-ethoxy)-ethoxy]-acetyl)2-(γGlu)-CO—(CH2)18—CO2H)LDKIAQ-Aib-AFIEYLIEGGPSSGAPPPS-NH2 (Y[Aib]EGTFTSDYSIK([AEEA-AEEA-γGlu-C20 diacid])LDKIAQ[Aib]AFIEYLIEGGPSSGAPPPS-NH2; N-terminus assumed; SMILES CC[C@H](C)[C@H](NC(=O)[C@H](CCCCN)NC(=O)[C@H](CC(=O)O)NC(=O)[C@H](CC(C)C)NC(=O)[C@H](CCCCNC(=O)COCCOCCNC(=O)COCCOCCNC(=O)CC[C@H](NC(=O)CCCCCCCCCCCCCCCCCCC(=O)O)C(=O)O)NC(=O)[C@@H](NC(=O)[C@H](CO)NC(=O)[C@H](Cc1ccc(O)cc1)NC(=O)[C@H](CC(=O)O)NC(=O)[C@H](CO)NC(=O)[C@@H](NC(=O)[C@H](Cc1ccccc1)NC(=O)[C@@H](NC(=O)CNC(=O)[C@H](CCC(=O)O)NC(=O)C(C)(C)NC(=O)[C@@H](N)Cc1ccc(O)cc1)[C@@H](C)O)[C@@H](C)O)[C@@H](C)CC)C(=O)N[C@@H](C)C(=O)N[C@@H](CCC(N)=O)C(=O)NC(C)(C)C(=O)N[C@@H](C)C(=O)N[C@@H](Cc1ccccc1)C(=O)N[C@H](C(=O)N[C@@H](CCC(=O)O)C(=O)N[C@@H](Cc1ccc(O)cc1)C(=O)N[C@@H](CC(C)C)C(=O)N[C@H](C(=O)N[C@@H](CCC(=O)O)C(=O)NCC(=O)NCC(=O)N1CCC[C@H]1C(=O)N[C@@H](CO)C(=O)N[C@@H](CO)C(=O)NCC(=O)N[C@@H](C)C(=O)N1CCC[C@H]1C(=O)N1CCC[C@H]1C(=O)N1CCC[C@H]1C(=O)N[C@@H](CO)C(N)=O)[C@@H](C)CC)[C@@H](C)CC) [Peptide 26]” the value was 2.46.
For “Y-Aib-EGTFTSDYSILLDK((2-[2-(2-Amino-ethoxy)-ethoxy]-acetyl)2-(γGlu)-CO—(CH2)18—CO2H)IAQ-Aib-AFIEYLIEGGPSSGAPPPS-NH2 (Y[Aib]EGTFTSDYSILLDK([AEEA-AEEA-γGlu-C20 diacid])IAQ[Aib]AFIEYLIEGGPSSGAPPPS-NH2; N-terminus assumed; SMILES CC[C@H](C)[C@H](NC(=O)[C@H](CCCCNC(=O)COCCOCCNC(=O)COCCOCCNC(=O)CC[C@H](NC(=O)CCCCCCCCCCCCCCCCCCC(=O)O)C(=O)O)NC(=O)[C@H](CC(=O)O)NC(=O)[C@H](CC(C)C)NC(=O)[C@H](CC(C)C)NC(=O)[C@@H](NC(=O)[C@H](CO)NC(=O)[C@H](Cc1ccc(O)cc1)NC(=O)[C@H](CC(=O)O)NC(=O)[C@H](CO)NC(=O)[C@@H](NC(=O)[C@H](Cc1ccccc1)NC(=O)[C@@H](NC(=O)CNC(=O)[C@H](CCC(=O)O)NC(=O)C(C)(C)NC(=O)[C@@H](N)Cc1ccc(O)cc1)[C@@H](C)O)[C@@H](C)O)[C@@H](C)CC)C(=O)N[C@@H](C)C(=O)N[C@@H](CCC(N)=O)C(=O)NC(C)(C)C(=O)N[C@@H](C)C(=O)N[C@@H](Cc1ccccc1)C(=O)N[C@H](C(=O)N[C@@H](CCC(=O)O)C(=O)N[C@@H](Cc1ccc(O)cc1)C(=O)N[C@@H](CC(C)C)C(=O)N[C@H](C(=O)N[C@@H](CCC(=O)O)C(=O)NCC(=O)NCC(=O)N1CCC[C@H]1C(=O)N[C@@H](CO)C(=O)N[C@@H](CO)C(=O)NCC(=O)N[C@@H](C)C(=O)N1CCC[C@H]1C(=O)N1CCC[C@H]1C(=O)N1CCC[C@H]1C(=O)N[C@@H](CO)C(N)=O)[C@@H](C)CC)[C@@H](C)CC) [Peptide 29]” the value was 7.99.
